Test results from publication PMC6296734, “The CbrB Regulon: Promoter dissection reveals novel insights into the CbrAB expression network in Pseudomonas putida”.
Where a chain is given by its changes, count along the chain named.

How the values were obtained:
[1] = biological target: T1, CbrB (Pseudomonas putida, UniProt A0ABM7EKZ2 1-480); test: EMSA; EMSA at room temperature; crcZ/crcY (5 nM): 35 mM Tris-acetate pH 7.9, 70 mM KAc, 20 mM NH4Ac, 2 mM MgAc2, 1 mM CaCl2, 1 mM DTT, 5% glycerol; others (1.5 nM) and footprint: 50 mM Tris-HCl pH 7.4, 50 mM KCl, 10 mM MgCl2, 0.1 mM EDTA, 1 mM DTT; plus 100 ng/ul salmon sperm DNA, 250 ng/ul BSA; conditions: protein: recombinant, tags: N-terminal His tag (pET-14b derived pMPO1229), label: 32P-dATP Klenow fill-in
T1 sequence: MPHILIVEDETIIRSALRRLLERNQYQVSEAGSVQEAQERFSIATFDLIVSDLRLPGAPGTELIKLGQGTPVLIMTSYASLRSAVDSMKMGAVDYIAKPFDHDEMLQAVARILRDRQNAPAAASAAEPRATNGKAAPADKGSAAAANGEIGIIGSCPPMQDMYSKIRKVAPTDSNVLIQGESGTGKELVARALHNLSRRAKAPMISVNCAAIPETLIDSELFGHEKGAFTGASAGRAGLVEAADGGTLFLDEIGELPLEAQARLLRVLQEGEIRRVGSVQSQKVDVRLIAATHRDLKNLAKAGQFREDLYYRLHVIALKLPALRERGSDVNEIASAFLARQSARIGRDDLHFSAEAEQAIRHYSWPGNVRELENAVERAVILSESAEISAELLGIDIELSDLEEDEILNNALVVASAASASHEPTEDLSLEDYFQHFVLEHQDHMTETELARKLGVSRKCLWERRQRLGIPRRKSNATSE

[2] = biological target: T1, CbrB; test: EMSA; not significantly affected; EMSA at room temperature; crcZ/crcY (5 nM): 35 mM Tris-acetate pH 7.9, 70 mM KAc, 20 mM NH4Ac, 2 mM MgAc2, 1 mM CaCl2, 1 mM DTT, 5% glycerol; others (1.5 nM) and footprint: 50 mM Tris-HCl pH 7.4, 50 mM KCl, 10 mM MgCl2, 0.1 mM EDTA, 1 mM DTT; plus 100 ng/ul salmon sperm DNA, 250 ng/ul BSA; conditions: protein: recombinant; tags: N-terminal His tag (pET-14b derived pMPO1229); label: 32P-dATP Klenow fill-in; 5' overhang 2 nt at both ends before fill-in
[3] = 5' overhang 2 nt at both ends before fill-in

B1: PcrcY wt 72 bp (dsDNA)
DNA 1: TTGTGTGGGTGAAGTGTTACCTCCCGCACATTTCACAGCAAAAAATCGGGTAACAGGGAAACAAATCGGCAGAA
DNA 2: TTTTCTGCCGATTTGTTTCCCTGTTACCCGATTTTTTGCTGTGAAATGTGCGGGAGGTAACACTTCACCCACAC
**Q.** Does B1 bind [1, 3]?
**A.** Result: binds

B2: PcrcY R' mutant (dsDNA)
DNA 1: B1 DNA 1 with G50T, T51A, A52C, A53C, C54G, A55T
DNA 2: B1 DNA 2 with T22A, G23C, T24G, T25G, A26T, C27A
**Q.** Does B2 bind [2]?
**A.** Result: binds

B3: PcrcY F1 mutant (dsDNA)
DNA 1: B1 DNA 1 with T15G, G16A, T17C, A19C, C20T
DNA 2: B1 DNA 2 with G57A, T58G, A60G, C61T, A62C
**Q.** Does B3 bind [1, 3]?
**A.** Result: no binding

B4: PcrcY R2 mutant (dsDNA)
DNA 1: B1 DNA 1 with G58T, A59C, A60T, A61C, C62A, A63T
DNA 2: B1 DNA 2 with T14A, G15T, T16G, T17A, T18G, C19A
**Q.** Does B4 bind [2]?
**A.** Result: binds

B5: PcrcZ wt 72 bp (dsDNA)
DNA 1: TTCCCGTAAAAATCTGTTACCCAAGCTTTCCGCCGTAACAGTCCCCGAGGCGTACGGTAACGAAATTGCGACAT
DNA 2: TTATGTCGCAATTTCGTTACCGTACGCCTCGGGGACTGTTACGGCGGAAAGCTTGGGTAACAGATTTTTACGGG
**Q.** Does B5 bind [1, 3]?
**A.** Result: binds

B6: PcrcZ R1 mutant (dsDNA)
DNA 1: B5 DNA 1 with G35T, T36G, A37C, A38T, C39A, A40C
DNA 2: TTATGTCGCAATTTCGTTACCGTACGCCTCGGGGACGTAGCAGGCGGAAAGCTTGGGTAACAGATTTTTACGG
**Q.** Does B6 bind ([1]; 5' overhang 2 nt (one end 3 nt, reverse strand printed one G shorter) before fill-in)?
**A.** Result: no binding

B7: PcrcZ R2 mutant (dsDNA)
DNA 1: B5 DNA 1 with G57T, T58A, A59C, A60C, C61G, G62T
DNA 2: B5 DNA 2 with C15A, G16C, T17G, T18G, A19T, C20A
**Q.** Does B7 bind [1, 3]?
**A.** Result: no binding

B8: PcrcZ F1 mutant (dsDNA)
DNA 1: B5 DNA 1 with T15G, G16A, T17C, A19C, C20T
DNA 2: B5 DNA 2 with G57A, T58G, A60G, C61T, A62C
**Q.** Does B8 bind [1, 3]?
**A.** Result: no binding
